From US12667614B2, “Bacterial microcompartment virus-like particles” (National University of Singapore, priority 2020, dated 2026)

B1: Free APEX2 (evolved pea cytosolic ascorbate peroxidase), N-terminal His6, fused to S2CP(30); APEX2-S2CP(30), SEQ ID NO: 110 (Glycine max; A134P/E112K/K14D/W41F) (protein)
chain: MGSSHHHHHHSSGMGKSYPTVSADYQDAVEKAKKKLRGFIAEKRCAPLMLRLAFHSAGTFDKGTKTGGPFGTIKHPAELAHSANNGLDIAVRLLEPLKAEFPILSYADFYQLAGVVAVEVTGGPKVPFHPGREDKPEPPPEGRLPDPTKGSDHLRDVFGKAMGLTDQDIVALSGGHTIGAAHKERSGFEGPWTSNPLIFDNSYFTELLSGEKEGLLQLPSDKALLSDPVFRPLVDKYAADEDAFFADYAEAHQKLSELGFADAGSSKPEKPGSKITGSSGNDTQGSLITYSGGARG
B2: APEX2 + shell: APEX2 (evolved pea cytosolic ascorbate peroxidase), N-terminal His6, fused to S2CP(30), SEQ ID NO: 110, encapsulated in Cso-BMC (Cso-PSIIH) … (protein)
chain: B1 chain

How the values were obtained:
[1] = substrate: COc1ccccc1O; assay: Steady-state kinetics of free APEX2 (guaiacol oxidation); type: biochemical, pea; details: other: free APEX2 10 nM, guaiacol 0.20 to 2.0 mM, H2O2 1 mM, TBS-50/350 pH 8.0, mean with standard error, triplicates, 30.0 °C
Method: (§1) For APEX2, all reagents were made to the appropriate working concentrations using TBS-50/350 pH 8.0. Working solutions of guaiacol and H2O2, both at 10 mM, were prepared on the day of assay. The guaiacol solution was shaken vigorously at 30° C. to ensure complete dissolution before equilibration back to room temperature. The assay concentration for APEX2 was 10 nM, H2O2 1 mM and that for guaiacol ranged from 0.20 to 2.0 mM. Total reaction volume was 200 μL. Reactions were monitored by the absorbance of tetraguaiacol formed at 470 nm using a BioTek Synergy™ HT microplate reader. […] This time point was taken for initial rate, V0, measurement. Kinetic constants were obtained using non-linear least square Michaelis-Menten fitting in GraphPad Prism software.
To probe the capacity of the Cso-BMC for encasing enzymes of considerably different molecular sizes, an evolved pea cytosolic ascorbate peroxidase (APEX2), a 27.0 kDa monomer [Lam et al., Nature Methods 12(1): 51-54 (2015)], and E. coli beta-galactosidase (LacZ), a 466.0 kDa homotetramer, were chosen for encapsulation [Golan, et al., Biochimica et Biophysica Acta (BBA)—Bioenergetics, 1293(2): 238-242; Lam et al., Nature Methods 12(1): 51-54 (2015)]. […] Enzymes were also N-terminally tagged with the hexahistidine (Hiss) tag to facilitate downstream removal of unencapsulated enzymes that might co-purify with shells (Nichols, Kennedy, & Tullman-Ercek, 2019). Cso-PSIIH shells co-expressed with enzymes were constructed and purified. SDS-PAGE analysis and Western blotting confirmed the presence of the target enzymes in shell samples (FIG. 18A-B) and the average copy numbers of enzymes per shell were estimated by Coomassie blue densitometry (Table 8) [Hagen, A., et al., Nature Communications 9: 2881 (2018); Nichols et al., Methods in Enzymology, 617, 155-186 (2019)].
Encapsulation of an enzyme into a protein shell is known to alter the enzyme's catalytic properties in some cases. […]

[2] = substrate: COc1ccccc1O; assay: Steady-state kinetics of Cso-BMC encapsulated APEX2 (guaiacol oxidation); type: biochemical, pea; details: other: encapsulated APEX2 10 nM, guaiacol 0.20 to 2.0 mM, H2O2 1 mM, TBS-50/350 pH 8.0, mean with standard error, triplicates, 30.0 °C
Method: as §1
To probe the capacity of the Cso-BMC for encasing enzymes of considerably different molecular sizes, an evolved pea cytosolic ascorbate peroxidase (APEX2), a 27.0 kDa monomer [Lam et al., Nature Methods 12(1): 51-54 (2015)], and E. coli beta-galactosidase (LacZ), a 466.0 kDa homotetramer, were chosen for encapsulation [Golan, et al., Biochimica et Biophysica Acta (BBA)—Bioenergetics, 1293(2): 238-242; Lam et al., Nature Methods 12(1): 51-54 (2015)]. […]

Protein | Km [1] [mM] | kcat [1] [s⁻¹] | kcat/Km [1] | Km [2] [mM]
B1 | 0.58 ± 0.07 | 460 ± 20 | 7.93 ± 1.02 × 10^5 (s^−1 · M^−1) | –
B2 | – | – | – | 0.79 ± 0.12
